The values that follow come from a protein production outcome set (Wang et al. 2014).

The nature of the data set: label from the status in PepcDB records.
Turning to “MNKAITVIVWLLVSLCVLAIITMPVSLQTHLVATAISLILLATIKSFNGQGAWRLVALGFGTAIVLRYVYWRTTSTLPPVNQLENFIPGFLLYLAEMYSVVMLGLSLVIVSMPLPSRKTRPGSPDYRPTVDVFVPSYNEDAELLANTLAAAKNMDYPADRFTVWLLDDGGSVQKRNAANIVEAQAAQRRHEELKKLCEDLDVRYLTRERNVHAKAGNLNNGLAHSTGELVTVFDADHAPARDFLLETVGYFDEDPRLFLVQTPHFFVNPDPIERNLRTFETMPSENEMFYGIIQRGLDKWNGAFFCGSAAVLRREALQDSDGFSGVSITEDCETALALHSRGWNSVYVDKPLIAGLQPATFASFIGQRSRWAQGMMQILIFRQPLFKRGLSFTQRLCYMSSTLFWLFPFPRTIFLFAPLFYLFFDLQIFVASGGEFLAYTAAYMLVNLMMQNYLYGSFRWPWISELYEYVQTVHLLPAVVSVIFNPGKPTFKVTAKDESIAEARLSEISRPFFVIFALLLVAMAFAVWRIYSEPYKADVTLVVGGWNLLNLIFAGCALGVVSERGDKSASRRITVKRRCEVQLGGSDTWVPASIDNVSVHGLLINIFDSATNIEKGATAIVKVKPHSEGVPETMPLNVVRTVRGEGFVSIGCTFSPQRAVDHRLIADLIFANSEQWSEFQRVRRKNPGLIRGTAIFLAIALFQTQRGLYYLVRARRPAPKSAKPVGAVK”, the protein production entry was “failed”.
Consider “MNKAVETRLNKSRPGGWIPRDGAHIERWIRRIKHYVTQQPRALVPPIAELRDLVHANPALHAQAEAMFKEAWRHKHLTPLGQPEVRSFEEFLGLLNGIMTTAPEAYQDIPSHEPSGLIGFPINALLDWPMATQSGYHFFANALINQQFKKILDYWAQFLQSPASRYVLNEPVSRLDQETLVVPWLGKVAKAEMVKVANEAVGEGPNPTPGSFEQIFECEPAAEYHGFSCWDDFFTRRFRAGVRPVSAPTDDGVIVNACESAPLQVRKEVSRSDQFWLKGQPYSLDNMLDFDDLAPRFEGGTVYQAFLSALSYHRWHSPVSGTIRKVRIVNGTYYLENQFEGFADPQGADPSAPNNSQPFLTSVATRALIFIEADNPKIGLMCVVPVGMAEVSSCEITVQAGDRVQKGDPLGMFHFGGSTHCLLFRPGVRLEFDFHGQIPGLDATNMRLNTAIARVK”, for which the protein production entry is on record as “failed”.
To “MNKEQLQQMRQAPGFVGALDQSGGSTPKALKAYGIQPDAYQSEEEMFDLIHQMRTRMITSPAFATGKIIGVILFERTMRGKIEGMPTADFLWEKRHIVPFLKVDKGLQDEANGVQLMKPFPELGKLCEEAVGYHVFGTKMRSVIKQANEQGIRDIVEQQFQWGKEILSHGLVPILEPEVDIHCPEKAKAEEILKRELLAQLDKMTEPVMLKITIPTVDNFYKEIIEHPMMLRVVALSGGYSREQANELLSRNHGVIASFSRALVEGLSARQTDAEFNAMLEASIEDVYQASIK” belongs “not failed”.
As for “MNKFKLGSDFDHLVNSLSDVELLNLFIQSCSQTTINGVPVPRFPPEEIQKQFVGASYEHALYEAYLFYRHIKEYAQNLGVPLNKESKVLDFGCGWGRIIRFLFKDASDQNLLGIDVDPAMITLCNETLGRGIYKTASPHPPVEFISDNSLDIIFAYSVFSHLSEATAENWVKEFSRVLRPGGIFIATTQARYFLDFCQQFQEHPELIQTGWHKTLSQAFPDIHRAISDYENGKFVHSPTGAGDVRNSSFYGETVIPRTYIENHYEKYLKLQDFFDDVNRLPQALFVLQKILEHHHHHH”, the protein production result is reported as “not failed”.
To “MNKGKFALLFTFAACFAVIVFFWLLAVPPENFTADRIVMVLLISPIFAILLAFNLSRFLKQHGYSLRQVHVALEQNIADFIYEFQRLVFIHLMPIAFLGALIFYYGEFTPAIAEFLSLFALIFALSPLLFLGISFFVAMLQVYERVRKKSLLRANFFNFWIWIHLFVILLIIISKVLVQPSELPFQKAYFKALNDGVFNLLIIATMNAIFGVTGRMVAREKFPILLHLSIPLVNSFVAVKILMA” belongs “failed”.
For the sequence “MNKHFLETLLQKHQQAGTFPSTSDICRLVTRILLVLFPEQTQAKYKDVADVEIQMGVYQKELTRLLGSMQKDLPAPANELSDAFMNELSVIYDKLLLDIQAILNGDPAARSEFEVIRAYPGFYAIAFYRMAHALYKLNIPLMPRIIMEYAHSKTGIDIHPGATIGKNFYIDHGTGIVIGETAHIGDNVKVYQGVTLGALSVSKDKADTKRHPTIEDNVIIYSGATILGGKTVVGHDSIIGGNVWLTESVQPFTRVYHKAQIEVIIKNADPSLNETENNEEAIRKMKKAESENTKKNS”, the protein production entry is “failed”.
To “MNKKKKKRTPKPINLNELEEKINILNFMKNDFEIVLQKENEKHSEVSIQYTNKEESSTLERERINIILKELIISCNEKKEHLNNYIKVAKDIIQKNNETIEKEKNDIDKLILQKDEQIKDVEKKIVIVQNFYKDINKGIIQLINNLEVYLRNKMNINIDIKKMNDKTIELTNVQKLNKQQECKENEFKNILYMSIDKYNEQISIIRTFIKKIKLKQEIDVIKEDNIINTNDDILREPSNNTNEQKEQSHKYDYSHDENENNNFRKYEMINIEEENDKENNVKGDNKLIINKNNVDSFDEDDSYDEDDSCDEDNSCDEDNSCGEVNSCGEDDSYDEDDSYDEDDSYDEDNSYDEDNSYDEDNRCGEKLEKEQLHNLQDDKKNYTLKKNINETLLSSLDDDESKFSSSNSDTTKSFEVYKNKEKDKDKEIYNYLYSEEETYEQKKNNESSNSDDDDNKKEHFIKKFTTLKTNKNILNEDVQFLMDKIKKIDYDYISYFEKKLKYK” belongs “failed”; to “MNKKRIVFGLLSFFLPIFLVFGGLLFFLLLLTSTSDTSKNDCIQPSINNPTDATDTPKSIEQFVKSHKDAYLLSWKAGGFLPSASISQTMVENGFNFTNPSGTSFWQAHNMGGVKTSKKEDFPVTLATFGQDSVDISGTKPGSNVGDGTGGAYTWFKDYNAGIVGKAEFMAHQTLYTGAINNTDGLSTLSAIYSGGWATDPTYLMKLQATYNSLGKQFQWLDQEAIQKYGNAPFKKSELVLNIPGKSPITNEKYGKNSDCVVTSDTSDQVTGQNTAPSLEVPSAYKGKLTLPPIDSNDYAGNNYPFGQCTWYAYNRMAQIGKPIEWFSGDGGNGAGWANSARAKGYTVVKVKPSVGWAASMQGGIGGSAPPYGHVAVVEYVNSDGSILVSEANVINQGSGTRSWRVLDRATVEQIDFIQGKGALEHHHHHH”, “failed”; to “MNKPLVVDLDGTLLRSDMLIESVLAYSKKGIRPVFHLPFWLLEGKAILKARLADRVDLSVEVLPYNTEVIDFIKQAKREQRQIVLATGTHKMFAEKIAEHLGLFDLVIATENGINLSARSKRDCLIDQFGEKGFDYIGNSHDDVVVWNAADKTYLADPEPGVKKKMDLQGGVARVFQTRQSSLRTFFRALRPHQWLKNLLLFIPLIASHQLTNITLIADALLAFVLFSMTASSGYLINDLLDLESDRYHPRKRNRPLASGELPILIGLISAPLLFLASLSASLILLSATFTISLVTYYLLSVVYSQYLKKIPLVDTIMLAGLYTVRILAGAFACSIIPTFWILAFSVFFFLSLAMLKRYAELLDLQTKGDTAKTSGRGYYPSDIQIIASLGTASGYLSILVLALYIQDARTIAMYKTHELIWLACPILLFWISRMWMLTHRGQMHDDPVLFAIKDRTSLITATLFACIFFLAILV”, “failed”.
Turning to “MNKPTLGIDLDTTLNTLDREWVKRYNEIYKDKLLPSDIKGWDIENYVKPECGKKIYDILKEPHFFRNLGVQPFAETALEELTSIFNIYIVSATHYKVCEDKGNWIKEKFPFISYQNIIFCHNKGLVHLDILIDDNPLNLENFKGNKILFDAHHNKSENRFVRARDWYEAKALCESLKDFL”, the protein production entry was “failed”.
To “MNKQLRNNMIVLLFAVILSLILNVAHILLPFMFGPIIASVICVRVFRLEIEWPFWLSQIGLVLLGVQIGSTFTKNVILDIKDDWLTIILITVMLLALALVIAFFFKKIAKVNTETAILSVIPGALSQMLIMAEENKRANIMVVSLTQTSRIIFVVILVPFISYFFRDNGSNGSLEKATTKVLTDAVSIPQILLLALAVFIVYIIMSKINFPTKQLLAPIIVLISWNLITGVTFTLDNYIIASAQVIYMIRIGLQIAKLLDQMKGRIAVAIAFQNVLLILLAFIMVLLISMVSNHSVNELFLGAAPGGMSQIVLVAIETGADVALISSYHIFRIFFILFLIAPLLGHLLKYIDRSHS” belongs “failed”.
On to “MNKQQQSMNTNRSAQEMSETSPEYEQKYQQAIDCIENQEYGQAISILDELAGEASRDAKLRYARAVALLSNGEYRRAGTDLAFTVALDRSNLEAYRHLGFVLLTMGKEEAAIKVLEEALRRDPCFVEAWCVLADVHMDLGEHDKALDALDRAHELQPGNAEVHCKLAMYYMSRGDMRGLRAEYEVLREIEPDVAAQIAELLP”, for which the protein production result is “failed”.
To “MNKRKMIGAHSALALLALAVSQVHAADPTVQQGREDRAEKAAQKTLAKMTMEEKLAYIGGTGGWDVKPLTNYGVPQIHGADGGVGVRYTSEGNDQGVVYPSGPNLAATFNPRRAIDLGRALGYDTATGGYQFITGPGVNLYRMPYGGRAFEYLSGEDPFLGASLAPGVINGIQSRGVWANAKHYAANDQESNRFNLDQKMPERVLREMSLPAFESSSKNGNVAMMMCAFQKVNGDFACESEHLIAQILKKEWGYKGFVQSDYNAVVHGFEAARAGTDLDMMGYQMNSSVLKPHLDAGDLSAATIDDKVRRILKQIYLYKFDSKAPLTTHNMNSSTSNKVALNAAREGIVLLKNQGDLLPLDKQKVKKIAVVGTLAKYAPPTGFGSANVMASHYVSELSGLQQMAPNAKVEFIDGLSLDPSTSAWNTTDAAGNSVQGMKVEYFSNTNWSGDAAVTRTEQHVDLDWANDKNLPFESNTSTSDPYTTKGSTAGELNGDTSSTSIRYTGKITPTQSGEQVFKVRADGAVRLWVNGKKIIDNGDGKPLPGNSIPPTIPEFAKINLEAGQSYDVKLEYSRRAGYLSTMGGLVGVQLSSASLNAPQDLSGYDAVVVAVGNSNEYEGEGFDHSFDLPEFQNELIQNIAKVNPNTVVTMYGGTGLKMSDWIEQVPVALHAFYPGQNGGQALAEILFGKINPSGKLPISIERNIEDNPAYASFPKFDNQNTLAEMDYKDDLMLGYRGYEKKGIKPLYPFGYGLSYTTFGYSNIKVTPGVAVGNTPIKVSFDLTNTGKVGGSEVAQLYVGQQNPKVERPIKELKGYKKVFLKPGESKRVTIELNDRSLAYFDVKTNQWVVDADTFNLSLGGSSQDIRLNAKLVNSFRQELSTTTSNPLPRSALNSVLVEKPPVKTGGVFQQTVE” belongs “failed”.
Take “MNKRVVKVEYIFMAFALFFGVLFAVINAPFQDPDEPIHFYRAYQISTGQMFEQKNNSGIGGYLPQNLIKTSENLSEDIKAKSNKKQDINKIKYYLNLPLNKNKVAFNDFRSATIYSDIVYIPQSIGINLAKIFRASALYMMYFGRIANLICWTIIVFFSVKLIPFKKNLMAFLALTPMNLYQAASLSADAMTNSMAFLSIALVLRYAFGEEEAKLTKRQIVTMIIAFTLLAFSKRIYFVMCILFFIIPIKKFNSKKDYIGTFVIMLGACLMSLVTVSVISKILAIKVSAGSYTPGQMEFVLSHPITYIHILLRTFHFKMSFYAISFIGVFGWLDTRLPLNLYLFYGVALVLIALFEHTLIEKNKDRIIMFIVFIINVGLIMSALYVSWTPKAANIIEGIQGRYFIPIIPLLGCFIGVKANKSRNVYSKVVLAISTFTILTYSVLQLLLRFYGIRIL”: the protein production entry is reported as “failed”.
To “MNKTLIINAHPKVDDTSSVSIKVFKHFLESYKELISNNETIEQINLYDDVVPMIDKTVLSAWEKQGNGQELTREEQKVTERMSEILQQFKSANTYVIVLPLHNFNIPSKLKDYMDNIMIARETFKYTETGSVGLLKDGRRMLVIQASGGIYTNDDWYTDVEYSHKYLKAMFNFLGIEDYQIVRAQGTAVLDPTEVLQNAYKEVEEAASRLANKYIFSLEE” belongs “not failed”.
